Laboratory results reported in IntAct's records for PubMed 20927106.

B1: Coronatine-insensitive protein 1 (Arabidopsis thaliana (Mouse-ear cress)), O04197 (parent)
chain: MEDPDIKRCKLSCVATVDDVIEQVMTYITDPKDRDSASLVCRRWFKIDSETREHVTMALCYTATPDRLSRRFPNLRSLKLKGKPRAAMFNLIPENWGGYVTPWVTEISNNLRQLKSVHFRRMIVSDLDLDRLAKARADDLETLKLDKCSGFTTDGLLSIVTHCRKIKTLLMEESSFSEKDGKWLHELAQHNTSLEVLNFYMTEFAKISPKDLETIARNCRSLVSVKVGDFEILELVGFFKAAANLEEFCGGSLNEDIGMPEKYMNLVFPRKLCRLGLSYMGPNEMPILFPFAAQIRKLDLLYALLETEDHCTLIQKCPNLEVLETRNVIGDRGLEVLAQYCKQLKRLRIERGADEQGMEDEEGLVSQRGLIALAQGCQELEYMAVYVSDITNESLESIGTYLKNLCDFRLVLLDREERITDLPLDNGVRSLLIGCKKLRRFAFYLRQGGLTDLGLSYIGQYSPNVRWMLLGYVGESDEGLMEFSRGCPNLQKLEMRGCCFSERAIAAAVTKLPSLRYLWVQGYRASMTGQDLMQMARPYWNIELIPSRRVPEVNQQGEIREMEHPAHILAYYSLAGQRTDCPTTVRVLKEPI
partner: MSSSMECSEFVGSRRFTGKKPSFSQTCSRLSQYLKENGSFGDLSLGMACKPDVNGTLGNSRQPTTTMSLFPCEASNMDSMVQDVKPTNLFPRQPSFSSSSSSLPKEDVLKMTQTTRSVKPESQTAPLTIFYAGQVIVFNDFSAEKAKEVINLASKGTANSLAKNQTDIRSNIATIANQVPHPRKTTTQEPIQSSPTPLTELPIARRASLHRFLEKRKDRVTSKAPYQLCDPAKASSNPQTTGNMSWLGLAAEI

Variants of: B1
Details: with ti10a_arath TIFY10A

Effect of a mutation on the interaction, disrupting interaction:
R85A
M88A
F89A
R121A
L301A
Y302A
R326A
R348A
R351A
Y386A
R409A
Y444A
L469A
R496A
